B1: CD133 peptide IIDPLNLFW (SEQ ID NO:3) (peptide)
peptide: IIDPLNLFW
notes: synthetic nine-residue peptide of human CD133 (ProImmune)
B2: CD133 peptide RTRIKRSRK (SEQ ID NO:7) (peptide)
peptide: RTRIKRSRK
notes: as for B1
B3: CD133 peptide LVLGSLLLL (SEQ ID NO:17) (peptide)
peptide: LVLGSLLLL
notes: as for B1
B4: CD133 peptide VLDEIKSMA (SEQ ID NO:10) (peptide)
peptide: VLDEIKSMA
notes: as for B1
B5: CD133 peptide ELVHIFLYV (SEQ ID NO:16) (peptide)
peptide: ELVHIFLYV
notes: as for B1
B6: CD133 peptide FITNNTSSV (SEQ ID NO:13) (peptide)
peptide: FITNNTSSV
notes: as for B1
B7: CD133 peptide ILAQYNTTK (SEQ ID NO:5) (peptide)
peptide: ILAQYNTTK
notes: as for B1
B8: CD133 peptide YLSGKLFNK (SEQ ID NO:6) (peptide)
peptide: YLSGKLFNK
notes: as for B1
B9: CD133 peptide NLFWFGIGK (SEQ ID NO:9) (peptide)
peptide: NLFWFGIGK
notes: as for B1
B10: CD133 peptide KLFNKSKMK (SEQ ID NO:4) (peptide)
peptide: KLFNKSKMK
notes: as for B1
B11: CD133 peptide AVDVFLCSY (SEQ ID NO:1) (peptide)
peptide: AVDVFLCSY
notes: as for B1
B12: CD133 peptide SLDFAQNFI (SEQ ID NO:15) (peptide)
peptide: SLDFAQNFI
notes: as for B1
B13: CD133 peptide FLLPALIFA (SEQ ID NO:21) (peptide)
peptide: FLLPALIFA
notes: as for B1
B14: CD133 peptide RVLDTPYLL (SEQ ID NO:14) (peptide)
peptide: RVLDTPYLL
notes: as for B1
B15: CD133 peptide NLLSFAYDL (SEQ ID NO:12) (peptide)
peptide: NLLSFAYDL
notes: as for B1
B16: CD133 peptide YLQWIEFSI (SEQ ID NO:11) (peptide)
peptide: YLQWIEFSI
notes: as for B1
B17: CD133 peptide SQLNSNPEL (SEQ ID NO:18) (peptide)
peptide: SQLNSNPEL
notes: as for B1
B18: CD133 peptide GLLERVTRI (SEQ ID NO:20) (peptide)
peptide: GLLERVTRI
notes: as for B1
B19: CD133 peptide LSSSLTSVK (SEQ ID NO:8) (peptide)
peptide: LSSSLTSVK
notes: as for B1
B20: CD133 peptide ILCCVLGLL (SEQ ID NO:19) (peptide)
peptide: ILCCVLGLL
notes: as for B1
B21: CD133 peptide SSELESLKV (SEQ ID NO:2) (peptide)
peptide: SSELESLKV
notes: as for B1

What was measured:
[1] = molecular target: T1, HLA-A*0101 (human); assay: REVEAL off rate analysis of peptide-MHC pentamers, 37 C, 0, 2 and 24 h
T1 construct: Class I MHC molecule of the ProImmune REVEAL assay; also called HLA-A1
Protocol: (§1) The pentamers were subjected to incubation and analysis at 37° C. to determine the stability of peptide-MHC complexes. Off-rates of the complexes were measured by REVEAL™ off rate analysis (ProImmune Ltd., Oxford, UK) after 0, 2, and 24 hours of incubation at 37° C.

[2] = molecular target: T1, HLA-A*0101; assay: REVEAL MHC binding assay, incorporation into MHC relative to positive control peptide
[3] = molecular target: T2, HLA-A*0301 (human); assay: REVEAL off rate analysis of peptide-MHC pentamers, 37 C, 0, 2 and 24 h
T2 construct: Class I MHC molecule of the ProImmune REVEAL assay; also called HLA-A3
Protocol: as §1

[4] = molecular target: T2, HLA-A*0301; assay: REVEAL MHC binding assay, incorporation into MHC relative to positive control peptide
[5] = molecular target: T3, HLA-A*0201 (human); assay: REVEAL off rate analysis of peptide-MHC pentamers, 37 C, 0, 2 and 24 h
T3 construct: Class I MHC molecule of the ProImmune REVEAL assay; also called HLA-A2
Protocol: as §1

[6] = molecular target: T3, HLA-A*0201; assay: REVEAL MHC binding assay, incorporation into MHC relative to positive control peptide
[7] = molecular target: T2, HLA-A*0301; assay: REVEAL off rate analysis of peptide-MHC pentamers, 37 C, 0, 2 and 24 h; * 24 h interval too short for an accurate value
Protocol: as §1

[8] = molecular target: T3, HLA-A*0201; assay: as above
Protocol: as §1

| Binder | t1/2 [5] | % Positive Control [6] | further results |
| --- | --- | --- | --- |
| B1 |  |  | t1/2 [1]: 0.35 h; % Positive Control [2]: 91.5% |
| B2 |  |  | t1/2 [3]: 23.9 h; % Positive Control [4]: 87.3% |
| B3 | 8.25 h | 102% |  |
| B4 | 1.43 h | 309% |  |
| B5 | 6.86 h | 156% |  |
| B6 | 20 h | 107% |  |
| B7 |  |  | t1/2 [3]: 2.07 h; % Positive Control [4]: 46.6% |
| B8 |  |  | % Positive Control [4]: 46.9% |
| B9 |  |  | t1/2 [3]: 3.35 h; % Positive Control [4]: 53.1% |
| B10 |  |  | % Positive Control [4]: 80.8%; t1/2 [7]: 27.8 h |
| B11 |  |  | t1/2 [1]: 20.7 h; % Positive Control [2]: 58.6% |
| B12 | 15.5 h | 115% |  |
| B13 |  | 93.6% | t1/2 [8]: > 120 h |
| B14 | 3.51 h | 165% |  |
| B15 | 1.83 h | 180% |  |
| B16 |  | 113% | t1/2 [8]: 83 h |
| B17 | 2.37 h | 123% |  |
| B18 |  | 131% | t1/2 [8]: 74.3 h |
| B19 |  |  | t1/2 [3]: 1.8 h; % Positive Control [4]: 52.5% |
| B20 | 5.63 h | 163% |  |
| B21 |  |  | t1/2 [1]: 0.46 h; % Positive Control [2]: 74.1% |
